Results from patent publication US20190077864A1 (ONCOMED PHARMACEUTICALS, published 2019).

How the values were obtained:
[1] = biological target: T1, hTIGIT variant 3 (Q62H and Q64H)-CD4TM-GFP on HEK-293T cells (human, UniProt Q495A1 22-141); assay: FACS on transfected HEK-293T cells
T1 construct: not shown: transmembrane domain of CD4 (CD4TM); GFP tag
T1 chain: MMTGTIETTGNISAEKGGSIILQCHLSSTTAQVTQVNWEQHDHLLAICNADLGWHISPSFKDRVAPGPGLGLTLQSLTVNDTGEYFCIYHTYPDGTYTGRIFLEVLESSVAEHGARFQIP
Protocol: (§1) To identify the binding epitope of antibody 313M32, an analysis was performed with a series of variants of human TIGIT with specific amino acid substitutions. The variants were based upon the differences between human TIGIT and cynomolgus TIGIT amino acid sequences, SEQ ID NO:4 and SEQ ID NO:77, respectively. The amino acid sequence of rhesus monkey TIGIT (SEQ ID NO:78) is identical to cynomolgus TIGIT (FIG. 21). The amino acid variants introduce amino acid residues present in cynomolgus monkey TIGIT into corresponding positions in human TIGIT. The hTIGIT variants generated have substitutions at (1) E36K and […]; (2) T51M, (3) Q62H and Q64H, (4) D72E, (5) S78Y and S80A, (6) V100M, (7) I109T and T119R, and (8) G135S. Each variant hTIGIT was generated using the hTIGIT (aa 22-141)-CD4TM-GFP construct described in Example 15.
(§2) The TIGIT variants were evaluated by FACS with anti-hTIGIT antibodies. […] After 16 hours, transfected cells were suspended in ice cold HBSS containing 2% FBS and incubated on ice with 1 μg/ml anti-hTIGIT antibodies 313R12, 313M32, or 313M34 for 30 minutes. 313M34 is an anti-hTIGIT antibody that was generated based upon the amino acid sequences of the 10A7 antibody described in U.S. Publication 2009/0258013. […] The cells were analyzed on a FACSCanto instrument (BD Biosciences) and the data was processed using FlowJo software.

[2] = biological target: T2, hTIGIT variant 7 (I109T and T119R)-CD4TM-GFP on HEK-293T cells (human, UniProt Q495A1 22-141); assay: FACS on transfected HEK-293T cells
T2 construct: not shown: transmembrane domain of CD4 (CD4TM); GFP tag
T2 chain: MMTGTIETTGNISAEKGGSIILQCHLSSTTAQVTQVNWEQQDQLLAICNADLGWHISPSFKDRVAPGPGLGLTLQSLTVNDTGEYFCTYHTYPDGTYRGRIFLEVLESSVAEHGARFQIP
Protocol: as §1, §2

[3] = biological target: T3, human TIGIT (human, UniProt Q495A1 22-141, limits assumed); assay: Biacore, preliminary; format not stated
T3 construct: also called hTIGIT
T3 sequence: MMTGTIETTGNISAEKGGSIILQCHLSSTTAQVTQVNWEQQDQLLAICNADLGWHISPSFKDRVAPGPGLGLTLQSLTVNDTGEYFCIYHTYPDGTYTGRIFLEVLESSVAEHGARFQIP

[4] = biological target: T4, hTIGIT variant 1 (E36K and I41V)-CD4TM-GFP on HEK-293T cells (human, UniProt Q495A1 22-141); assay: FACS, 1 µg/ml antibody on transfected HEK-293T cells
T4 construct: read as I41V; not shown: transmembrane domain of CD4 (CD4TM); GFP tag
T4 chain: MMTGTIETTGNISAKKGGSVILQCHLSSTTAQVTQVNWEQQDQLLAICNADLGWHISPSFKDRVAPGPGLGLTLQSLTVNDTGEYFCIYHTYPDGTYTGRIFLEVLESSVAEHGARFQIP
Protocol: as §1
(§3) The TIGIT variants were evaluated by FACS with anti-hTIGIT antibodies. […] After 16 hours, transfected cells were suspended in ice cold HBSS containing 2% FBS and incubated on ice with 1 μg/ml anti-hTIGIT antibodies 313R12, 313M32, or 313M34 for 30 minutes. 313M34 is an anti-hTIGIT antibody that was generated based upon the amino acid sequences of the 10A7 antibody described in U.S. Publication 2009/0258013. The 10A7 antibody is an anti-mouse TIGIT antibody that binds both mouse TIGIT and human TIGIT. A second incubation with 50 μl PE-conjugated anti-Fc secondary antibody was performed to detect cells bound by the antibodies. The cells were analyzed on a FACSCanto instrument (BD Biosciences) and the data was processed using FlowJo software.

[5] = biological target: T5, hTIGIT variant 2 (T51M)-CD4TM-GFP on HEK-293T cells (human, UniProt Q495A1 22-141); assay: as above
T5 construct: not shown: transmembrane domain of CD4 (CD4TM); GFP tag
T5 chain: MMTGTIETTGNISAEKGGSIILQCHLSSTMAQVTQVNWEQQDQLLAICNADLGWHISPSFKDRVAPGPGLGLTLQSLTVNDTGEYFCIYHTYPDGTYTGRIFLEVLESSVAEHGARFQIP
Protocol: as §1, §3

[6] = biological target: T6, hTIGIT variant 4 (D72E)-CD4TM-GFP on HEK-293T cells (human, UniProt Q495A1 22-141); assay: as above
T6 construct: not shown: transmembrane domain of CD4 (CD4TM); GFP tag
T6 chain: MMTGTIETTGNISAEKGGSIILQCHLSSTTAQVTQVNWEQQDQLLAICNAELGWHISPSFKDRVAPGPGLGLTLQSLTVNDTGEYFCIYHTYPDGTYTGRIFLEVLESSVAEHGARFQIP
Protocol: as §1, §3

[7] = biological target: T7, hTIGIT variant 5 (S78Y and S80A)-CD4TM-GFP on HEK-293T cells (human, UniProt Q495A1 22-141); assay: as above
T7 construct: not shown: transmembrane domain of CD4 (CD4TM); GFP tag
T7 chain: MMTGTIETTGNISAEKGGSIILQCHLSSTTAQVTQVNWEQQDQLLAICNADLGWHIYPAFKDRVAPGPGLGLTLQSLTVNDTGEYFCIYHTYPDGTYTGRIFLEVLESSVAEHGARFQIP
Protocol: as §1, §3

[8] = biological target: T8, hTIGIT variant 6 (V100M)-CD4TM-GFP on HEK-293T cells (human, UniProt Q495A1 22-141); assay: as above
T8 construct: not shown: transmembrane domain of CD4 (CD4TM); GFP tag
T8 chain: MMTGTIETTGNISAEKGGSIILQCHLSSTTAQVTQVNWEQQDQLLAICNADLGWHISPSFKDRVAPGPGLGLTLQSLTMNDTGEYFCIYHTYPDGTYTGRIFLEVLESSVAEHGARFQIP
Protocol: as §1, §3

[9] = biological target: T9, hTIGIT variant 8 (G135S)-CD4TM-GFP on HEK-293T cells (human, UniProt Q495A1 22-141); assay: as above
T9 construct: not shown: transmembrane domain of CD4 (CD4TM); GFP tag
T9 chain: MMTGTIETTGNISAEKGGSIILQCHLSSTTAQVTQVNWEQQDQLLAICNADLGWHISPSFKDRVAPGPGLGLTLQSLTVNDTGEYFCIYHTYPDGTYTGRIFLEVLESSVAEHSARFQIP
Protocol: as §1, §3

[10] = biological target: T10, hTIGIT-CD4TM-GFP on HEK-293T cells (human, UniProt Q495A1 22-141); assay: inferred from two blocking studies of hPVR-rbFc binding to hTIGIT cells, flow cytometry
T10 construct: Cell surface fusion protein, transiently expressed; also called human TIGIT ECD-CD4TM-GFP; FLAG-hTIGIT-CD4TM-GFP; not shown: transmembrane domain of CD4 (CD4TM); C-terminal GFP protein tag
T10 sequence: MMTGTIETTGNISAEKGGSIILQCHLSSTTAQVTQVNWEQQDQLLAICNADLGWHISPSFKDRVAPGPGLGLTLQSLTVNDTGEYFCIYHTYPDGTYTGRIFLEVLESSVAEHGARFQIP
Protocol: After 16 hours, transfected cells were suspended in ice cold HBSS containing 2% FBS and heparin and incubated on ice with 0.5 μg/ml hPVR-rbFc fusion protein in the presence of anti-TIGIT antibodies 313R19, 313M26, or 313M32 for 60 minutes. Antibody 313R19 is a humanized version of a rabbit anti-TIGIT antibody. 313R19 binds mouse and human TIGIT. The antibodies were tested at concentrations of 10, 2, and 0.4 ug/ml. Cells were incubated without antibody or without hPVR-rbFc as controls. A second incubation with 100 μl PE-conjugated anti-rabbit Fc secondary antibody was performed to detect cells bound by the hPVR-rbFc fusion protein. The cells were analyzed on a FACSCanto instrument (BD Biosciences) and the data was processed using FlowJo software.
All three anti-TIGIT antibodies blocked binding of hPVR-rbFc to hTIGIT at the highest concentration of 10 μg/ml.

[11] = biological target: T11, mouse TIGIT ECD-CD4TM-GFP on HEK-293T cells (mouse, UniProt P86176 29-148); assay: flow cytometry, 1 µg/ml antibody on HEK-293T cells transiently transfected with mTIGIT-CD4TM-GFP, PE-conjugated anti-Fc secondary
T11 construct: The legend names the construct as mouse TIGIT ECD; also called mouse TIGIT-CD4TM-GFP; mTIGIT-CD4TM-GFP; not shown: transmembrane domain of CD4 (CD4TM); GFP (green fluorescent protein)
T11 sequence: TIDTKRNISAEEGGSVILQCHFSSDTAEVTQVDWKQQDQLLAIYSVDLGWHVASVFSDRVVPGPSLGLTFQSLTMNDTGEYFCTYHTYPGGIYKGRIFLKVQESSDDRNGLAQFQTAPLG
Protocol: as §3

B1: anti-TIGIT antibody 313M32 (antibody, human IgG1, kappa, V domains shown)
VH: QVQLQESGPGLVKPSETLSLTCAVSGYSITSDYAWNWIRQPPGKGLEWIGYISYSGSTSYNPSLRSRVTISRDTSKNQFFLKLSSVTAADTAVYYCARRQVGLGFAYWGQGTLVTVSS
VL: DIQMTQSPSSLSASVGDRVTITCKASQDVSTAVAWYQQKPGKAPKLLIYSASYRYTGVPSRFSGSGSGTDFTFTISSLQPEDIATYYCQQHYSTPWTFGQGTKVEIKR
notes: Humanized version of 313M26, human IgG1
- binding result [1]: no binding (tested: 1 µg/ml)
- binding result [2]: no binding (tested: 1 µg/ml)
- Kd [3]: 0.4 nM
- binding result [4]: binds
- binding result [5]: binds
- binding result [6]: binds
- binding result [7]: binds
- binding result [8]: binds
- binding result [9]: binds
- fold higher affinity than antibody 313R19 [10]: ~5 fold
- binding result [11]: no binding (tested: 1 µg/ml)
